Source: patent US20240076386A1 (Pfizer, published 2024)

T1: human E-selectin, cell-surface expressed (human, UniProt P16581 22-610)
T1 construct: also called CHO-human E-selectin cells; human CHO-E
T1 sequence: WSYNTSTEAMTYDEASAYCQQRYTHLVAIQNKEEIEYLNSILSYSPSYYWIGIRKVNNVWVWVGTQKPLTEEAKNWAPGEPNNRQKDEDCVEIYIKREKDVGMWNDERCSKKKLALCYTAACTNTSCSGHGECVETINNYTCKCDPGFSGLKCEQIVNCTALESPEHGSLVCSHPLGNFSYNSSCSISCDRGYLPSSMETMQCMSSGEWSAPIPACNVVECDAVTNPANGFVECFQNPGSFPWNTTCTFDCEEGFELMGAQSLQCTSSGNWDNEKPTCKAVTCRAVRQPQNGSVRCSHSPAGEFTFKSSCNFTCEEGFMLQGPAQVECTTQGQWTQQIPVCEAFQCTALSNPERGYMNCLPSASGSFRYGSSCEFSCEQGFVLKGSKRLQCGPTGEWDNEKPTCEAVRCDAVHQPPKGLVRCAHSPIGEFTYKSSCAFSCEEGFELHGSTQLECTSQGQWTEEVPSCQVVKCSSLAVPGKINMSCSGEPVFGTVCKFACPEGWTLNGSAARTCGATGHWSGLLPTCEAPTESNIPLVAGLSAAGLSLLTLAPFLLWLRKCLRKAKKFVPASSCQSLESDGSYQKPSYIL


Tests used:
[1] = biological target: T1, human E-selectin, cell-surface expressed; test: competition ELISA on CHO cells vs sialyl Lewis A-PAA-biotin/SA-HRP
Method: (§1) The ability of anti-E-selectin antibodies to neutralize ligand binding was assessed in a static neutralization assay using a competition enzyme-linked immunosorbent assay (ELISA) to evaluate the neutralization of the sialyl Lewis antigen to Chinese hamster ovary cells (CHO) engineered to express E-selectin.
Briefly, CHO cells expressing human E-selectin were grown in culture medium (MEM (Minimum Essential Medium) Alpha Medium, supplemented with 10% dialyzed fetal bovine serum, 100 nM methotrexate and 100 Units/mL penicillin and 100 μg/mL streptomycin) and were seeded at 12,500 cells per well into a 96 well tissue culture plate and incubated at 37° C., 5% CO₂ for 48 hours to form a confluent monolayer. Plates were subsequently washed twice with 200 μL of calcium magnesium free phosphate buffered saline (PBS). […] Plates were then washed twice with 200 μL of calcium magnesium free PBS. Following the incubation, the cells were washed twice with 200 μL of wash buffer containing 2 mM of calcium chloride (50 mM TRIS [trisaminomethane], 150 mM sodium chloride; 0.05% polysorbate 20, pH 7.4; 2 mM of calcium chloride). Signal was developed by adding 100 μL of 1-Step Ultra TMB substrate (Thermo Scientific, 34028) and incubating for 30 minutes at room temperature. Reactions were stopped using 2 M of sulfuric acid and absorbance read at 450 nm (Spectramax M5e). Data were analyzed and graphed using GraphPad Prism software (Version 8.0.2).

[2] = biological target: T1, human E-selectin, cell-surface expressed; test: flow cytometry, CHO cells
Method: Cells were maintained in growth medium at 37° C., 5% CO₂ and 95% air in a humidified incubator. Methotrexate or Zeocin were removed from the medium prior to culture for experiments. CHO-E selectin cells or P-selectin cells were detached from T-150 flasks using citric saline (135 mM KCl, 15 mM sodium citrate) and immediately re-calcified with the addition of CaCl₂) to the detached cells to a final concentration of 1 mM. Growth media was immediately added to the detached cells, then centrifuged at 300×g for 5 minutes at room temperature to pellet the cells. Cells were plated into 96-well V-bottom plates in cold CHO buffer consisting of phosphate buffered saline (PBS), pH 7.4 containing bovine serum albumin (BSA; Sigma-Aldrich) at final concentration of 1%, calcium chloride at final concentration of 1 mM, and sodium azide at a final concentration of 0.1%, for 5 minutes on wet ice. After incubation, the cells were centrifuged at 300×g for 2 minutes at 4° C. to remove the buffer.
After incubation, antibodies were removed and the cells were washed three times by centrifugation at 300×g for 1 minute at 4° C. and resuspended in cold CHO buffer. The washed cells were incubated for 30 minutes on wet ice with 100 μL of a 1:1000 dilution of APC-conjugated AffiniPure F(ab′)₂ Fragment Goat Anti-human IgG, Fcγ (Jackson Imnnunoresearch). The cells were washed three or four times prior to resuspension in CHO buffer for flow cytometric analysis. A Becton Dickinson LSRFortessa instrument using 640 nanometer laser line was used to acquire cell fluorescence data. Geometric mean fluorescence of cells was analyzed by FlowJo software package (FlowJo, LLC) and plotted against antibody concentration. The estimated EC₅₀ values were calculated using nonlinear regression analysis in the Prism suite (GraphPad, version 8) (Table 8).

[3] = biological target: T1, human E-selectin, cell-surface expressed; test: competition ELISA on CHO cells vs sialyl Lewis ligand-PAA-biotin/SA-HRP
Method: as §1, with “In a static ligand cellular adhesion assay, horse radish peroxidase (HRP) conjugated E-selectin ligand (sialyl Lewis antigen) and E-selectin antibodies compete for binding to human or cynomolgus E-selectin expressed on Chinese hamster ovary (CHO) cells. The” for “The”, “express human or cynomolgus monkey” for “express”
CHO cells expressing E-selectin were seeded at 12,500 cells per well into a 96 well tissue culture plate and incubated at 37° C., 5% CO₂ for 48 hours to form a confluent monolayer. Plates were subsequently washed twice with 200 μL of calcium magnesium free PBS. Anti-E-selectin antibodies or an IgG1 isotype control (IgG control) were added to the assay in the presence of a small synthetic conjugate of biotinylated, sialyl Lewis A polyacrylamide (Carbosynth LLC, OS45446) or sialyl Lewis X polyacrylamide (Glycotech, 01-045) with streptavidin/horseradish peroxidase (100 μL total) and incubated at 37° C., 5% CO₂ for 2 hours. Plates were then washed twice with 200 μL of calcium and magnesium free PBS. Following the incubation, the cells were washed twice with 200 μL of wash buffer containing 2 mM of calcium chloride (50 mM TRIS [trisaminomethane], 150 mM sodium chloride; 0.05% polysorbate 20, pH 7.4; 2 mM calcium chloride). Signal was developed by adding 100 μL of 1-Step Ultra TMB substrate (Thermo Scientific, 34028) and incubating for 30 minutes at room temperature. Reactions were stopped using 2 M of sulfuric acid and absorbance was read at 450 nm (Spectramax M5e). Data were analyzed and graphed using GraphPad Prism software (Version 8.0.2).

| Binder | IC50 [1] [nM] | EC50 [2] [nM] | IC50 [3] [nM] |
| --- | --- | --- | --- |
| anti-E-selectin antibody 0180 chimera (antibody, human IgG1, kappa, V domains shown, rat VH/VL on effector-null human IgG1 and human kappa) VH: EVQLQQSGAELGKPGTSVKLSCKVSGYKIRSSYMHWVNQRPGKGLEWIGRIDPANGNTIYGDKFKSKATLTSDTSSNTAYIQLSQLKSDDTAIYFCAIDIGTTFDYWGQGVMVTVSS VL: DIQMTQSPSFLSASVGDRVTINCKASQHINRYLNWYQQKLGEAPKLLIYDANNLQTGIPSRFSGSGSGTDFTLTISSLQPEDVATYFCLQHNSWPNTFGAGTKLELKR | 3.83 | 4.31 | – |
| anti-E-selectin antibody 0164 chimera (antibody, human IgG1, kappa, V domains shown, rat VH/VL on effector-null human IgG1 and human kappa) VH: EVQLQQSGAEFGKPGTSVKLSCKVSGYNIRSSYMHWVNQRPGKGLEWIGRIDPANGNTIYAEKFKIKAILTADSSSNTAYMQLSQLKSDDTAIYFCAMDLYSTSEYWGQGVMVTVSS VL: DIQMTQSPSFLSASVGDRVTINCKTSQNINRYLNWYQQKLGEAPKLLIYNANSLQTGIPSRFSASGSGTDFTLTINSLQPEDVATYFCLQDNSWPLTFGSGTKLEIKR | 2.77 | 4.43 | 2.69 |
| anti-E-selectin antibody 0039 chimera (antibody, human IgG1, kappa, V domains shown, rat VH/VL on effector-null human IgG1 and human kappa) VH: QVQLKETGPGLVQPTQTLSITCTVSGFSLTGYYMQWVRQTPGKGLEWMGFIRSSGSTEYNSEFKSRLSISRDTSKNQVFLKMNSLKTEDTGVYYCARCPYKYSSFVYVGVMDAWGQGAPVTVSS VL: EIVMTQSPTSMSTSIGERVTLNCKASQTVGINVDWYQQTPGQPPKLLIYGASNRHTGVPDRFTGSGFGRDFTLTISNVEAEDLAVYCCLQYGSIPHTFGPGTKLELKR | 3.76 | 4.99 | – |
| optimized anti-E-selectin antibody 1282 (antibody, human IgG1, kappa, V domains shown, effector-null human IgG1, kappa) VH: EVQLVESGGGLVQPGGSLRLSCAASGYAIRSAYMHWVRQAPGKGLEWVARIDPANGNTIYVDSVEGRFTISADNAKNSAYLQMNSLRAEDTAVYYCAMDLYSTSEYWGQGTLVTVSS VL: DIQMTQSPSSLSASVGDRVTITCKTSQNIERYLNWYQQKPGKAPKLLIYAASSLQSGVPSRFSGSGSGTDFTLTISSLQPEDFATYFCLQDNAWPLTFGQGTKVEIKR | – | – | 1.38 |
| anti-E-selectin antibody 0158 chimera (antibody, human IgG1, kappa, V domains shown, rat VH/VL on effector-null human IgG1 and human kappa) VH: QVQLKESGPGLVQPSETLSLTCTVSGFSISTYNVHWLRQPPGKGLEWMGMMWSGGSPDYNSALKSRLSISRDTSKNQVFLKMNSLQSEDTTTYYCARWGGGFDYWGQGVMVTVSS VL: DIVLTQSPTTLSVTPGETVSLSCRASHSIGTNLHWYQQKTNESPRLLIKFTSQSISGIPSRFSASGSGTDFTLNINNVEFDDVSSYFCQQTQSWPLTFGSGTKLEIKR | 2.87 | 3.75 | – |
| anti-E-selectin antibody 0159 chimera (antibody, human IgG1, kappa, V domains shown, rat VH/VL on effector-null human IgG1 and human kappa) VH: EVQLQQSGAELGKPGTSVKLSCKVSGYNIRSTYMHWVSQRPGKGLEWIGRIDPANGNTIYAEKFKRKATLTADTSSNTAYMQLSQLKSDDRAIYFCAMEVRVSFEYWGQGVMVTVSS VL: DIQMTQSPSFLSASVGDRVTINCKASQNINKYLDWYQQKLGEGPKLLIYYTNNLHTGIPSRFSGSGSGTDFTLTISSLQPEDVATYFCLQHDSGYTFGAGTKLELKR | 3.24 | 2.44 | – |
| anti-E-selectin antibody 0170 chimera (antibody, human IgG1, kappa, V domains shown, rat VH/VL on effector-null human IgG1 and human kappa) VH: EVQLQQSGAELGKPGTSVKLSCKVSGYSIRSTYMHWVNQRPGKGLEWVGRIDPANGNTIYAERFKNKATLTADTSSNTAYMQLSQLKSDDTAIYFCAVEILGIFDYWGQGVMVTVSS VL: DIQMTQSPSFLSASVGDRVTINCKASQNIDKYLDWYQQKLGEAPKLLMYNTNSLHTGIPSRFSGSGSGTDFTLTISSLQPEDVATYFCLQHNSGYTFGAGTKLELKR | 2.3 | 1.99 | – |

Next, values leading:

| IC50 [1] [nM] | EC50 [2] [nM] | IC50 [3] [nM] | Binder |
| --- | --- | --- | --- |
| – | – | 2.56 | humanized anti-E-selectin antibody 0841 (antibody, human IgG1, kappa, V domains shown, effector-null human IgG1, kappa) VH: EVQLVESGGGLVQPGGSLRLSCAASGYNIRSSYMHWVRQAPGKGLEWVARIDPANGNTIYAEKFKIRFTISADNAKNSAYLQMNSLRAEDTAVYYCAMDLYSTSEYWGQGTLVTVSS VL: DIQMTQSPSSLSASVGDRVTITCKTSQNINRYLNWYQQKPGKAPKLLIYNANSLQTGVPSRFSGSGSGTDFTLTISSLQPEDFATYFCLQDNSWPLTFGQGTKVEIKR |
| – | – | 2.89 | optimized anti-E-selectin antibody 1444 (antibody, human IgG1, kappa, V domains shown, effector-null human IgG1, kappa) VH: EVQLVESGGGLVQPGGSLRLSCAASGYAIRSAYMHWVRQAPGKGLEWVARIDPANGNTIYVDSVTGRFTISADNAKNSAYLQMNSLRAEDTAVYYCAMDLYSTSEYWGQGTLVTVSS VL: DIQMTQSPSSLSASVGDRVTITCKTSQNIERYLNWYQQKPGKAPKLLIYAASSLQSGVPSRFSGSGSGTDFTLTISSLQPEDFATYFCLQDNAWPLTFGQGTKVEIKR |
| – | – | 2.77 | optimized anti-E-selectin antibody 1284 (antibody, human IgG1, kappa, V domains shown, effector-null human IgG1, kappa) VH: EVQLVESGGGLVQPGGSLRLSCAASGYAIRSAYMHWVRQAPGKGLEWVARIDPANGNTIYVESVEGRFTISADNAKNSAYLQMNSLRAEDTAVYYCAMDLYSTSEYWGQGTLVTVSS VL: DIQMTQSPSSLSASVGDRVTITCKTSQNIERYLNWYQQKPGKAPKLLIYAASSLQSGVPSRFSGSGSGTDFTLTISSLQPEDFATYFCLQDNAWPLTFGQGTKVEIKR |
| – | – | 2.78 | optimized anti-E-selectin antibody 1448 (antibody, human IgG1, kappa, V domains shown, effector-null human IgG1, kappa) VH: EVQLVESGGGLVQPGGSLRLSCAASGYAIRSAYMHWVRQAPGKGLEWVARIDPANGNTIYVDSVKERFTISADNAKNSAYLQMNSLRAEDTAVYYCAMDLYSTSEYWGQGTLVTVSS VL: DIQMTQSPSSLSASVGDRVTITCKTSQNIERYLNWYQQKPGKAPKLLIYAASSLQSGVPSRFSGSGSGTDFTLTISSLQPEDFATYFCLQDNAWPLTFGQGTKVEIKR |
